Experimental data as given in patent publication US20210214447A1 (SHANGHAI INSTITUTE OF MATERIA MEDICA CHINESE ACADEMY OF …, published 2021).
Several values for one entry are separate records, joined by “and”; a condition that tells them apart may be missing. Identical values can stand only once. Like-named read-outs stand apart in the source and are kept apart here.

T1: human AXL on the surface of tumor cells (human, UniProt P30530 26-894)
T1 construct: whole, on cells; endogenous protein of human tumor cell lines; the cell line is named under assay or readout; also called AXL on the cell surface
T1 sequence (looked up): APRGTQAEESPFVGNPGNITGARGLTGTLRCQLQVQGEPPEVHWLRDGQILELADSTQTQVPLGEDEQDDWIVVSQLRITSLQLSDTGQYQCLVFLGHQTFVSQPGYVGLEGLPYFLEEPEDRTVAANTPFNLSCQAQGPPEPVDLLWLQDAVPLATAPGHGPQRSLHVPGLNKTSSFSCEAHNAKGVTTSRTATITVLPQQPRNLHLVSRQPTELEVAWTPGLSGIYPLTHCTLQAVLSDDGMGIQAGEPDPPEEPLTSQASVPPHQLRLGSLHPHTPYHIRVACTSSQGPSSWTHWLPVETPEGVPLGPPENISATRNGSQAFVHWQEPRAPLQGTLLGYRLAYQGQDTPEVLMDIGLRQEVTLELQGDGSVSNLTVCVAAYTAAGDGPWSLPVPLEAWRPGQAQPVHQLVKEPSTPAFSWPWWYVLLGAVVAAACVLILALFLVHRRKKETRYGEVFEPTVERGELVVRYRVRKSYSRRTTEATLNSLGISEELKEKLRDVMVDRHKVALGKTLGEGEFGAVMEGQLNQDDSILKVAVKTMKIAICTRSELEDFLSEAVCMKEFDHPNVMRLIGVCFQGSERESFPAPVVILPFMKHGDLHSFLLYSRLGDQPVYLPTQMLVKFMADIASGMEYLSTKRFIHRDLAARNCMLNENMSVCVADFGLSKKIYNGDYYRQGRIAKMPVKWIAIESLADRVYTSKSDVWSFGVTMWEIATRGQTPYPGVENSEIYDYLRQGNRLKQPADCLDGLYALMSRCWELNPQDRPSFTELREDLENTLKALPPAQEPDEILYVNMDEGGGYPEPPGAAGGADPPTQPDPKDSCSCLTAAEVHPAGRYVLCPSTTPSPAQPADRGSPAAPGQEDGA

T2: extracellular domain of human AXL protein (AXL-ECD) (human, UniProt P30530 31-449)
T2 construct: expressed in HEK293T cells; coated on the ELISA plate; also called AXL-ECD protein; human AXL extracellular domain protein
T2 sequence: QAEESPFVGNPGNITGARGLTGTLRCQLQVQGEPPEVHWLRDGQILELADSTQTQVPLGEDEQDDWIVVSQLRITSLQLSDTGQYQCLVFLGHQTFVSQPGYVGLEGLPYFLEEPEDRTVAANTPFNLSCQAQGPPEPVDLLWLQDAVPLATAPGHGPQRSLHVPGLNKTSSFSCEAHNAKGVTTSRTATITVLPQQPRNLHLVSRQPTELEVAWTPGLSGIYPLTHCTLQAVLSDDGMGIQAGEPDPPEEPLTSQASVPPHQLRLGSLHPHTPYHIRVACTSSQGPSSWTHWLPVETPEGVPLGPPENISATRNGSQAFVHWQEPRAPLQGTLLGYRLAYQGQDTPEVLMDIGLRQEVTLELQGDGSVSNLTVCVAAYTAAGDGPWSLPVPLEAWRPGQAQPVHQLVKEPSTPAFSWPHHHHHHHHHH


Key:
[1] = target: T3, cynomolgus monkey AXL on the surface of HEK-293T cells (cynomolgus monkey); experiment: FACS on HEK293T cells transiently expressing monkey AXL
T3 construct: transiently expressed in HEK293T cells from pcDNA3.1
Protocol: 3. HEK293T cells were spread to a 50% density in a culture dish, and cultured overnight at 37° C. to a confluence of about 80%. […] of monkey/mouse-AXL vector plasmid prepared above was transiently transfected into the cells with Liposome Lipo2000 (Invitrogen). 24 hours after transfection, the proteins were collected for Western blot analysis, and the cells were collected for FACS to detect the binding activity of Hu002-2 and monkey/mouse AXL on HEK293T cell surface. The FACS detection test method may be referred to Example 18.

[2] = target: T1, human AXL on the surface of tumor cells; experiment: FACS on LCLC-103H cells
Protocol: (§1) Then the obtained solutions were incubated at 4° C. for 1 h, the cells were washed twice with PBS to remove unbound primary antibody, and then the target cells were incubated with 200 μL PE-labeled secondary antibody (2 μg/mL) at 4° C. for 30 min. The cells were washed twice with PBS to remove unbound secondary antibody. Finally, the cells were resuspended in 200 μL PBS, and the binding affinity of the test antibody to AXL on the cell surface was determined by a flow cytometer (FACSCalibur)
The experimental method was referred to Example 8.

[3] = target: T1, human AXL on the surface of tumor cells; experiment: FACS on MDA-MB-231 cells
Protocol: as §1
24 humanized antibodies in Table-6 were diluted by gradient, and their affinities to AXL, on the surface of MDA-MB-231 cells were determined by flow cytometer. The experimental method was referred to Example 8.

[4] = target: T2, extracellular domain of human AXL …; experiment: ELISA, plate-coated AXL-ECD
Protocol: (§2) The extracellular domain of AXL protein (AXL-ECD) was diluted to […] with the coating solution, and coated onto ELISA plate with 100 μL/well at 4° C. overnight. The excess antigen was washed off. The plate was blocked with 1% BSA at room temperature for 2 h, then each monoclonal antibody in a 3-fold dilution was added at 100 µL/well. The plate was incubated at room temperature for 1 h; the unbound antibody was washed off, and appropriate concentration of anti-mouse secondary antibody labeled with horseradish peroxidase was added at 100 µL/well. The plate was incubated at room temperature for 0.5 h. The unbound secondary antibody was washed off. TMB Substrate was added and reacted for about 15 minutes. 1N HCL was added at 50 µL/well to stop the color reaction. Then the absorbance was measured at 450 nm and the obtained data was analyzed.
24 humanized antibodies in Table-6 were diluted by gradient, and their affinity to AXL-ECD protein was determined by ELISA. The experimental method was referred to Example 4.

[5] = target: T1, human AXL on the surface of tumor cells; experiment: FACS on MDA-MB-231 cells; remark: listed apart in the source
Protocol: as §1

[6] = target: T1, human AXL on the surface of tumor cells; experiment: FACS, 5 ug/mL antibody, LCLC-103H cells compared with AXL-low MDA-MB-453 cells
Protocol: (§3) 3×10⁵ tumor cells were mixed well with the antibody (final concentration was 5 μg/mL), and then incubated at 4° C. for 1 hour. The cells were washed twice with PBS to remove unbound primary antibody. Then 200 μL ([…]) PE-labeled secondary antibody was added and incubated at 4° C. for 30 min. The cells were washed twice with PBS to remove unbound secondary antibodies. Finally, the cells were resuspended in 200 μL PBS. The Binding affinity of the tested antibody to AXL on the cell surface or the overall binding fluorescence intensity (MFI) of different tumor cells at the same antibody concentration was determined with a flow cytometer (FACSCalibur).
(§4) The chimeric antibody mAb002c could specifically recognize and bind tumor cells with AXL high expression.

[7] = target: T1, human AXL on the surface of tumor cells; experiment: FACS on NCI-H1299 cells
Protocol: as §1
AXL-high-expression lung cancer cells NCI-H1299 were used as target cells. 100 μL of the test antibody diluted in a 3-fold gradient was used as primary antibody, and mixed with 1×10⁵ NCI-H1299 cells suspended in 100 μL RPMI-1640 serum-free medium. The operation method was the same as above. Finally, the cells were resuspended in 200 μL PBS, and the binding affinity of the tested antibody to AXL on the cell surface was determined by a flow cytometer (FACSAria II).

[8] = target: T2, extracellular domain of human AXL …; experiment: ELISA, plate-coated AXL-ECD; remark: listed apart in the source
Protocol: as §2

[9] = target: T1, human AXL on the surface of tumor cells; experiment: FACS on MDA-MB-231 cells, mean EC50
Protocol: as §1

[10] = target: T1, human AXL on the surface of tumor cells; experiment: FACS, 5 ug/mL antibody, NCI-H1299 cells compared with AXL-low MDA-MB-453 cells
Protocol: as §3, §4

| EC50 [1] [nM] | EC50 [2] [nM] | EC50 [3] | Highest MFI value (FACSCalibur) [3] [MFI] | EC50 [4] | TOP (OD450) [4] [OD450] | Highest MFI value (FACSCalibur) [5] [MFI] | fold difference of binding rate (MFI) against MDA-MB-453 cells [6] [times] | EC50 [7] [nM] | Highest MFI value (FACSAria II) [7] [MFI] | EC50 [8] [nM] | Highest reading (OD450 nm) [8] [OD450 nm] | EC50 [9] [nM] | fold difference of binding rate (MFI) against MDA-MB-453 cells [10] [times] | Binder |
| --- | --- | --- | --- | --- | --- | --- | --- | --- | --- | --- | --- | --- | --- | --- |
| 0.135 | 0.37 | 0.112 nM | 278 | 0.055 nM | 3.6 |  |  |  |  |  |  |  |  | Hu002-2 (antibody, V domains shown, humanized from mAb002c; also called Hu002c-2) VH: QVQLVQSGAEVKKPGASVKVSCKASGYPFTDFYINWVRQAPGQGLEWMGWIYPGSGNTKYNEKFKGRVTLTVDTSISTAYMELSRLRSDDTAVYYCARSTGFFDYWGQGTLVTVSS VL: EIVLTQSPATLSLSPGERATLSCSASSSIGYMYWYQQKPGQAPRLLIYLTSNLASGIPARFSGSGSGTDFTLTISSLEPEDFAVYYCQQWSSNPPTFGQGTKLEIK |
|  |  | 0.16 nM and 0.169 nM |  | 0.082 nM and 0.076 nM |  | 242 | 91 | 0.456 | 2260 | 0.073 | 3.79 | 0.174 | 127 | mAb002c (antibody, V domains shown, also called human-mouse chimeric antibody mAb002c) VH: QIQLQQSGPELVKPGASVKISCKASGYPFTDFYINWVKQKPGQGLEWIGWIYPGSGNTKYNEKFKGKATLTVDTSSSTAYMQLSSLTSEDTAVYFCARSTGFFDYWGQGTTLTVSS VL: QIVLTQSPALMSASPGEKVTMTCSASSSIGYMYWYQQKPRSSPKSWIYLTSNLASGVPARFSGSGSGTSYSLTISSMEAEDAATYYCQQWSSNPPTFGAGTKLELK |
